Values joined by “and” are separate entries in the source; they are usually repeats but may differ in a detail not shown here. Identical values can stand only once. No end group written: not given here.
Molecular target: Recombinant Gn (residues 21–452) of the SFTSV membrane glycoprotein polyprotein (severe fever with thrombocytopenia syndrome virus)
Test: ELISA

B1: Biotinylated HKU-P1 (peptide)
peptide: KKRGFGS
modifications: not fully specified
Q: How did the binding affinity turn out when B1 was run?
A: 700 µg/mL

Q: What about the signal over background at 250 µg/mL (fold) of the same binder?
A: 2 fold and 3 fold

Reference: paper PMC8539749 (Viruses, 2021)
